Reference: patent US20230265187A1 (published 2023)
Substitutions are numbered along the chain they refer to.

B1: 43352p1.A11 (scFv, V domains shown)
VH: DVQLVESGGGVVRPGESLRLSCAASGFTFSSHAMSWVRQAPGEGLEWVSLTSGNGVSAYYADSVKGRFTISRDNSKNTLYLQMNSLSAEDTAIYYCARGTYLISFFDYWGLGTLVTVSS
VL: QSVLTQPPSASGTPGQRVTISCSGISAKIGNNYVSWYQQLPGTAPKLLIYFNNQRPSGVPDRFSGSKSGTSASLAISGLQSEDEADYYCASWDDSLNAWLFGGGTKLTVL
B2: 43352p1.D11 (scFv, V domains shown)
VH: B1 VH with T51I
VL: B1 VL
B3: 43645p1.C11 (scFv, V domains shown)
VH: EVQLLESGGGLVQPGGSLRPSCATSGFTFSSYWMSWVRQAPGKGLEWVSGIHISDSTYYADSVKGRFTISRDNSKNTLYLQMNSLRAEDTAVYYCAKGHTVLQYGMDVWGQGTTVTVSS
VL: QSGLTQPPSASGTPGQRVTISCSGDISNTRNNYVSWYQQLPGTAPKLLIYGNHQRPSGVPDRFSGSKSATSASLAISGLQSEDEADYYCGTWDNTLNAWVFGGGTKLTVL
B4: 43586p1.1.G9 (scFv, V domains shown)
VH: EVQLLESGGGLVQPGGSLRLSCAASGFTFTTYAMSWVRQAPGKGLEWVAGISYIGSDKYYADSVKGRLTISRDNSKNTLYLQMDSLRAEDTAVYYCAKHLTGGTTDYYYYGMDVWGQGTTVTVS
VL: QSVLTQPPSASGTPGQRVTISCSGSTSNIGTSRYVHWYQHLPGTAPKLLIYLDSQRPSGVPDRFSASKSGTSASLAISGLQSEDEADYYCSAWDDSLSAWVFGGGTKLTVL
B5: 43586p2.B02 (scFv, V domains shown)
VH: EVQLLESGGGLVQPGGSLRLSCAASGFTFTSYAMSWVSQAPGKGLEWVAGISYDGSSKYYADSVKGRLTISRDNSKNTLYLQMNSLRAEDTAIYYCAKHLTGGTTDYYYYAMDVWGQGTTVTVSS
VL: B4 VL with T26R, S32N, H40Q, L52G, D53N, S54H, A66G, S91A
B6: 43645p1.F12 (scFv, V domains shown)
VH: EVQLLESGGGLVQPGGSLRLSCAASGFTFSDYWMSWVRQAPGKGLEWVSSINWNGDNTYYYADSVKGRFTISRDNSKNTLYLQMNSLRAEDTAVYYCAKSHTVLQYGMDVWGQGTTVTVSS
VL: QSVLTQPPSASGTPGQRVTISCSGSSSNIQSNYVYWYQQLPGTAPKLLIYGNHQRPSGVPDRFSGSKSDTSASLAISGLQSEDEADYYCATWDASLNVWVFGGGTKLTVL
B7: 43586p1.2.A4 (scFv, V domains shown)
VH: EVQLLESGGGLVQPGGSLRLSCAASGFTVSDHHMSWVRQAPGKGLEWVSGIDPGGKTYYVDSVKGRFTISRDNSKNTLYLQMNSLRAEDTAVYYCAREQYDWNDDMDVWGQGTTVTVSS
VL: QSVLTQPPSASGTPGQRVTISCSGSRSNVGDHYVSWYQQFPGTAPKLLIYANYQRPSGVPDRFSGSKSGTSASLAISGLQSEDEADHYCASWDASLNVWVFGGGTKLTVL
B8: 43645p1.B8 (scFv, V domains shown)
VH: EVQLLESGGGLVQPGGSLRLSCAASGFTFSDFWMSWVRQAPGKGLEWVSSIINIQTYDYATYYADSVKGRFTISRDNSKNTLYLQMNSLRAEDTAIYYCAKDVAPGLPGGMDVWGQGTTVTVSS
VL: QSVLTQPPSASGTPGQRVTISCSGSNSNIRNNFVSWYQHLPGMAPKLLIYGNSQRPSGVPDRFSGSKSGTSASLAISGLQSEDEADYYCTSWDFSVNGWVFGGGTKLTVL
B9: 43645p1.F7 (scFv, V domains shown)
VH: B8 VH
VL: B8 VL with M43T
B10: 43645p1.C9 (scFv, V domains shown)
VH: B8 VH
VL: B8 VL with M43T, N97S
B11: 43586p2.F10 (scFv, V domains shown)
VH: VESGGGLVQPGGSLRLSCAASGFTVSDHYVSWVRQAPGKGLEWVSTSSSTNWNDGRTYYADSVKGRFTISRDNSENTLYLQMNSLRAEDTAVYYCAKDQYKGNDYYYYGMDVWGQGTTVTVSS
VL: QSVLTQPPSASGTPGQRVTISCSASNSYIGTKYFYWYQQLPGTAPKLLIYLDSQRPSGVPDRFSGSKSGTSVSLAISGLQSEDEADYYCAFWDDHLHGWVFGGGTKLTVL
B12: 43586p2.B03 (scFv, V domains shown)
VH: EVQLLESGGGWVQPGGSLRLSCAASGFTFIDYWMSWVRQAPGKGLEWVSSISWIGDTTFYADSVKGRFTISRDSSLNTVYLQMNSLRAEDTAVYYCAKHWTVYQYGMDVWGQGTTVTVSS
VL: QSVLTQPPSASGTPGQRVTISCSGGSSKIGSKYVHWYQQLPGTAPKLLIYKDDQRPSGVPDRFSGSKSGTSASLAISGLQSEDEADYYCAAWDDRVNAWVFGGGTKLTVL
B13: 43586p2.B05 (scFv, V domains shown)
VH: EVQLLESGGGLVQPGGSLRLSCAASGFTFSDYYMNWVRQAPGKGLEYVASINWNGGTTYYADSVKGRFTISRDNSKNTLYLQMSSLRAEDTAVYYCAKDQNWNFYYGMDVWGQGTTVTVSS
VL: QSVLTQPPSASGTPGQRVTISCSGGSSNIGNNFVSWYQQLPGTAPKLLIYNEIKRPSGVPDRFSASKSGTSASLAISGLQSEDEADYYCASWDGSLRGWVFGGGTKLTVL
B14: 43586p2.C01 (scFv, V domains shown)
VH: B13 VH with S84N
VL: B13 VL
B15: 43586p1.1.C2 (scFv, V domains shown)
VH: B13 VH with Y47W, A49S, K76R, S84N
VL: B13 VL with N31T, F33Y, I49L, N51K, I53D, K54Q, A65G, S91T, G98S

target: T1, human TIGIT on Jurkat cells (TIGIT/NFAT reporter Jurkat cells, BPS Bioscience #60538); Promega TIGIT Effector … (human, UniProt Q495A1 22-244); experiment: cell-based or functional assay
T1 sequence (looked up): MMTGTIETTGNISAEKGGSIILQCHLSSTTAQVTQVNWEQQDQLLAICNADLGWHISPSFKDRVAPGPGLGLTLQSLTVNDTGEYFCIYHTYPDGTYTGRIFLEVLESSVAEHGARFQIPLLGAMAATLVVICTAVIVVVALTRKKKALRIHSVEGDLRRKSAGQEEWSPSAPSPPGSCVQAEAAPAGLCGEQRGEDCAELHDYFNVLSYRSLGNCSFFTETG

Binder | max. signal (% of 22G2)
B1 | 101 % of 22G2
B2 | 105 % of 22G2
B3 | 119 % of 22G2
B4 | 113 % of 22G2
B5 | 106 % of 22G2

target: T2, his-tagged human TIGIT (Acro Biosystems #TIT-H52H3) (human, UniProt Q495A1 22-141); experiment: ELISA, coated His-TIGIT, 1 ug/ml
T2 construct: Bought protein; also called His-tagged-TIGIT (human); not shown: his tag
T2 sequence (looked up): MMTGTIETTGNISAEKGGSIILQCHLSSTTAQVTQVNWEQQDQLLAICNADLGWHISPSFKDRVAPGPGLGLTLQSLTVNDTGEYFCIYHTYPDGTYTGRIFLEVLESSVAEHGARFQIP

Binder | Elisa OD450
B6 | 0.477 OD450
B1 | 0.677 OD450
B2 | 2.15 OD450
B3 | 2.18 OD450
B7 | 1.69 OD450
B8 | 1.76 OD450
B9 | 1.97 OD450
B10 | 1.86 OD450
B11 | 1.75 OD450
B12 | 1.16 OD450
B4 | 2.23 OD450
B5 | 1.94 OD450
B13 | 1.84 OD450
B14 | 1.81 OD450
B15 | 1.49 OD450

target: T3, his-tagged murine TIGIT (Acro Biosystems #TIT-M52E6) (murine, UniProt P86176 29-148, limits assumed); experiment: ELISA, coated His-TIGIT, 1 ug/ml
T3 construct: Bought protein; also called mouse his-tagged TIGIT; not shown: his tag
T3 sequence (looked up): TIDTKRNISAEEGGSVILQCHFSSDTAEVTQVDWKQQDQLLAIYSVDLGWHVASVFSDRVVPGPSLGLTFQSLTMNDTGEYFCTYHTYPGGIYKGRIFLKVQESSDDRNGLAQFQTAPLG

Binder | Elisa OD450
B6 | 0.052 OD450
B1 | 0.056 OD450
B2 | 0.046 OD450
B3 | 1.69 OD450
B7 | 1.82 OD450
B8 | 0.052 OD450
B9 | 0.489 OD450
B10 | 0.065 OD450
B11 | 1.29 OD450
B12 | 0.047 OD450
B4 | 0.046 OD450
B5 | 0.046 OD450
B13 | 0.07 OD450
B14 | 0.046 OD450
B15 | 0.046 OD450

target: T4, His-tagged cynomolgus monkey TIGIT (Acro Biosystems #TIT-05223) (cynomolgus monkey, UniProt A0A7N9I9V4 89-209); experiment: ELISA, coated His-TIGIT, 1 ug/ml
T4 construct: Bought protein; also called cyno TIGIT; cynomolgus TIGIT; not shown: His tag
T4 sequence (A0A7N9I9V4 entry or part of it): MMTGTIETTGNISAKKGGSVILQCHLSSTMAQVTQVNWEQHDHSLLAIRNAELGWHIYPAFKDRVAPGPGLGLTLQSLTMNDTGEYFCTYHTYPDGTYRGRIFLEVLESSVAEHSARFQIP

Binder | Elisa OD450
B6 | 0.069 OD450
B1 | 0.048 OD450
B2 | 0.044 OD450
B3 | 1.65 OD450
B7 | 0.239 OD450
B8 | 1.38 OD450
B9 | 1.52 OD450
B10 | 1.39 OD450
B11 | 0.987 OD450
B12 | 0.047 OD450
B4 | 1.6 OD450
B5 | 1.59 OD450
B13 | 1.32 OD450
B14 | 1.32 OD450
B15 | 0.817 OD450

target: T1, human TIGIT on Jurkat cells (TIGIT/NFAT …); experiment: flow cytometry, TIGIT/NFAT Jurkat cells, 10 ug/ml

Binder | MFI
B6 | 4100 MFI
B1 | 8790 MFI
B2 | 8650 MFI
B3 | 9040 MFI
B7 | 13700 MFI
B8 | 9410 MFI
B9 | 15400 MFI
B10 | 16500 MFI
B11 | 14400 MFI
B12 | 6110 MFI
B4 | 9000 MFI
B5 | 9090 MFI
B13 | 9320 MFI
B14 | 7770 MFI
B15 | 6710 MFI

target: T2, his-tagged human TIGIT (Acro Biosystems …); experiment: SPR (Carterra LSA), scFv-Fc captured, His-TIGIT analyte
Procedure: (§1) Binding affinities of anti-TIGIT antibodies to human, cyno, and murine TIGIT were measured by Surface Plasmon Resonance (SPR) on a Carterra LSA instrument. Goat anti-human Fc antibody was amine coupled to a HC30M chip. ScFv-Fc supernatants were diluted 30-fold with HBSTE and were captured by the anti-human Fc coupled HC30M chip. A 1:2 dilution series of his-tagged human TIGIT, starting at 400 nM, was injected onto the chip for binding. A dilution series was also carried out for cyno TIGIT and murine TIGIT. Data were analyzed using the Carterra™ Kinetics software.

Binder | Kd
B1 | 0.0716 nM
B2 | 0.0685 nM
B3 | 0.0888 nM
B8 | 0.0906 nM
B9 | 0.0741 nM
B10 | 0.195 nM
B12 | 67.3 nM
B4 | 1.08 nM
B5 | 2.19 nM
B13 | 0.119 nM
B14 | 0.151 nM
B15 | 0.383 nM

target: T4, His-tagged cynomolgus monkey TIGIT …; experiment: as above
Procedure: as §1

Binder | Kd
B10 | 23.5 nM
B4 | 18.8 nM
B5 | 26.8 nM
B15 | 3.69 nM
